For data set [1], the system named is VEGFR2. As to the kind of experiment: VEGF-induced VEGFR2 phosphorylation in HUVECs in presence of rDPl. In kind it is cell-based, human. The conditions noted are these: in the presence of rDPl.
Data set [2] concerns HUVEC spheroids. As to the kind of experiment: HUVEC spheroid sprouting with VEGF and rDPl. It counts as cell-based, human. The conditions noted are these: co-treated with VEGF, different concentrations rDPl. How it is done:
To test this hypothesis, HUVEC spheroids were treated with VEGF in the presence or absence of rDPl. VEGF promoted HUVEC spheroid sprouting; the sprouting was augmented when co-treated with different concentrations rDPl and in Hu.dpl spheroids (FIG. 27A).

In data set [3] the test system is HUVEC spheroids. As to the kind of experiment: HUVEC spheroids implanted in Matrigel-fibrin gel in vivo. On the set-up: species or system SCID mice. The conditions noted are these: VEGF and rDPl-treated HUVEC spheroids. From the text: HUVEC spheroids in vivo were implanted in Matrigel-fibrin gel in the presence of doppel and VEGF following an established protocol (see Alajati et al., Nat Methods. 5:439-445 (2008) and Laib et al., Nat Protoc. 4:1202-1215 (2009)); Hu.dpl spheroids were used to compare. […] In contrast, the presence of VEGF and rDPl generated a complete and perfused vascular bed in the Matrigel-fibrin gel. […] These findings support that rDPl enhances angiogenesis in tumor.

The test system of the next data set is EL4 tumor. As to the kind of experiment: Rescue of EL4 tumor growth in Dpl+/− KO mice by rDPl. It counts as in vivo, Dpl+/− KO C57BL/6 mice. How it is done:
To rescue angiogenesis and growth of tumor, Dpl^+/− KO mice were treated with intravenous injection of 1 mg/kg of rDPl three times after the 4th day of EL4 tumor inoculation. EL4 cells were also inoculated with 1 and 10 μg of rDPl in a mixture with 50 μL of Matrigel, in Dpl^+/− KO mice and grown for 10 days.

The test system of a further data set is TEC spheroids. Nature of the data set: TEC spheroid sprouting. In kind it is cell-based, mouse. How it is done: The spheroid-based in vivo angiogenesis assay was performed according to a published procedure. Briefly, 8×10^6 TECs or TEC^−/−dpl were suspended in […] media containing 20% methocel solution and 80% culture medium. Cells were divided into non-adherent plastic square petri dishes, 25 μL for each spheroid. Spheroids formed by TECs or TEC^−/−dpl were harvested and mixed in a matrigel/fibrin mixture that contained mouse VEGF and bFGF. TECs or TEC^−/−dpl spheroids (1000 spheroids per plug) were inoculated subcutaneously in the flank of each female SCID mouse (5-6 weeks, Jungang Animal Lab, Korea) or female Balb/c nude mice (Orinet bio, Seongnam, Korea). The spheroids were allowed to grow for 3 weeks. Cy5.5-labeled LMWH, at a dose 2.5 mg/kg, was injected intravenously, and at 2 hours after injection, its accumulation at the site of TEC implantation was checked using Optimax-MX3 (GE Medical Systems, Milwaukee, Wis.). In other experiments, Cy5.5-labeled LHbisD4, at a dose 10 mg/kg, was administered orally, and its distribution was also checked as described previously. The matrix plug was removed and part of the plugs was analyzed for microvessel density and drug accumulation by immunofluorescence staining.
Custom made murine anti-doppel mAbs were acquired and tested for recognition of mouse doppel present in host-derived blood vessels of tumors, ability to block doppel function in vitro, and ability to arrest tumor growth. The selection strategy involved screening for binding with mouse doppel using ELISA and testing for ability to detect doppel protein in TEC lysates using western blot. Six independent clones (7D9, 1B12, 1C8, 5C7, 4D6, and 6F11) were identified. Of the six clones, 5C7 and 4D6 abrogated mouse VEGF (mVEGF)-induced sprouting of TEC spheroids (FIG. 20A, B).

The test system of data set [4] is VEGFR2. Nature of the data set: mVEGF-induced VEGFR2 phosphorylation in TECs (immunoblot). It counts as cell-based, mouse. The conditions noted are these: purified clones. In general terms: A western blot detects proteins with antibodies after separation by electrophoresis.
In the next data set the test system is CT26 colon cancer. Nature of the data set: CT26 colon cancer model, tumor growth and angiogenesis. It counts as in vivo, mice. The conditions noted are these: for reduction of tumor growth: intravenous; for tumor volume and weight: intravenous 5 and 10 mg/kg, compared to saline and control IgG. How it is done:
Based on the in vitro data, clones 4D6 and 5C7 were selected to study the anti-tumor and anti-angiogenic effect of in a murine-derived CT26 colon cancer model. When the tumors reached an average size of 50 mm^3, the mice were treated with intravenous doses of 5 and 10 mg/kg 4D6 and 5C7 mAb clones. […] When administered at a dose of 10 mg/kg once or twice a week, 4D6 mAb reduced the tumor growth by 71.1±4.2% or 87.9±3.9%, respectively.

Data set [5] has as its system HCT116 human colon cancer. Nature of the data set: HCT116 human colon cancer mouse xenograft. It counts as in vivo, mice. From the text:
The antitumor effect of 4D6 mAb was also observed in HCT116 human colon cancer mouse xenografts. 4D6 mAb inhibited tumor growth (FIG. 19C, D), doppel- and CD31-positive tumor vessels (FIG. 19E), and mean tumor blood vessels density commensurately with dose and dosing frequency (FIG. 19F, G).
A general note: Xenograft models place foreign cells or tissue in a host animal.

Data set [6] is described as follows: Preliminary safety observations in treated tumor-bearing mice. It counts as in vivo.
A further data set addresses doppel (Mus musculus, UniProt Q9QUG3). As to the kind of experiment: Epitope mapping. In kind it is binding. The conditions noted are these: doppel peptide mapping. From the text: (The same sequence appears in both mouse and human doppel.) FIG. 32 discloses SEQ ID NOS 63-98, respectively, in order of appearance, in the x-axis of the graph and SEQ ID NO: 11 in the body of the graph.
(The corresponding sequence in human doppel is FPDGIH (SEQ ID NO: 61).) FIG. 33 discloses SEQ ID NOS 63-98, respectively, in order of appearance, in the x-axis of the graph and SEQ ID NOS 99-102, 12 and 103-104, respectively, left to right, in order of appearance, in the body of the graph.

The subject of data set [7] is VEGFR2. Nature of the data set: VEGFR2 dimerization/clustering in Hu.dpl cells (proximity ligation assay, western blot). In kind it is cell-based, human. From the text: The effect of doppel on VEGFR2 dimerization in the absence of VEGF was investigated. In situ proximity ligation assay (PLA) was used to see VEGFR2 homodimers/clusters in intact cells (FIG. 22G, H). […] It was observed that the dynamics between VEGFR2 monomer-dimer using western blot (FIG. 28A). In HUVECs, the prominent 125 kDa and a relative weaker 250 kDa band appeared as VEGFR2 monomer and dimer, respectively. In Hu.dpl cells, VEGFR2 was detected at 250 kDa band in immunoblots.

[8] abbreviates: mVEGF-induced, cell supernatants of clones.
Setting [9] is: purified clones, different concentrations.

Consider rDPl: recombinant doppel (rDPl) protein, for which the “VEGFR2 phosphorylation by VEGF” value with VEGFR2 [1] is “robustly and dose dependently increased”. The HUVEC spheroid sprouting entry with HUVEC spheroids [2] is “augmented”. Also, the “hemoglobin content of spheroid plugs” value in the data set on HUVEC spheroids [3] is “higher than control and VEGF-treated spheroids”. Also, the growth of tumors result with EL4 tumor (EL4 cells inoculated with 1 and 10 μg of rDPl in Matrigel) is given as “dose dependently rescued”. The “localization in tumor tissues” value in the data set on EL4 tumor (intravenously injected rDPl) is “concentrated and colocalized with VEGFR2- and CD31-positive vessels”.

B1: 4D6: murine anti-doppel mAb of hybridoma clone 4D6; VL SEQ ID NO: 49, VH SEQ ID NO: 55 (antibody, V domains shown)
VH: QVQLHQSGSELARPGASVKLSCKASGYTFTNYWMQWVKQRPGQGLEWIGAIYPGDGNTRYSQKFKGKATLTADKSSSTAYMQLSSLASEDSAVYYCARRDYGSSYWYFDVWGAGTTVTVSS
VL: DVLMTQTPLSLPVSLGDQASISCRSSQSIVHSNGNTYLEWYLQKPGQSPKLLIYKVSNRFSGVPDRFSGSGSGTDFTLKISRVEAEDLGVYYCFQGSHVPLTFGAGTKLELKR
B1: the “sprouting of TEC spheroids” value with TEC spheroids (setting [8]) is recorded as “abrogated”. In the data set with TEC spheroids (setting [9]), the “sprouting of TEC spheroids” value was “dose-dependently prevented”. Besides, the “VEGFR2 phosphorylation in TECs” value in the data set with VEGFR2 [4] was “dose-dependently prevented”. Also, in the data set on CT26 colon cancer (10 mg/kg once a week), the “reduction of tumor growth” value is listed as 71.1±4.2%. Moreover, the “reduction of tumor growth” value in the data set on CT26 colon cancer (10 mg/kg twice a week) is 87.9±3.9%. In addition, in the data set with CT26 colon cancer, the “tumor volume and weight” value is “markedly regressed”. Also, the “doppel- and CD31-positive tumor vessels and mean tumor blood vessels density” value in data set [5] (commensurately with dose and dosing frequency) is recorded as “inhibited”. Besides, in [5] (intravenous 5 and 10 mg/kg once a week, 10 mg/kg twice a week), the tumor growth entry is recorded as “inhibited”. In addition, in data set [6], the body weight entry is listed as “no changes”; the “clinical chemistry or hematological blood profile” value is reported as “no alteration”; the “organ pathology upon inspection and histological analysis” value is “no obvious organ pathology”. Besides, the epitope bound result in the data set with doppel is listed as “YWQFPD”.

B2: 5C7: murine anti-doppel mAb of hybridoma clone 5C7; VL SEQ ID NO: 53, VH SEQ ID NO: 59 (antibody, V domains shown)
VH: QVQLQQSGTELVRPGSSVKISCKASGYAFSSHWMNWVKQRPGQGLEWIGQIYPRNGDTNYNGKFKGKATLTADKSSSTAYMQLSSLTSEDSAVYFCSRSTTIVTTGAYWGQGTLVTVSA
VL: DIQMTQSPSSLSASLGERVSLTCRASQEISGYLSWLQQKPDGTIKRLIYAASILDSGVPKRFSGSRSGSDYSLTISSLESEDFADYYCLQYASYPFMFGAGTKLELKR
Turning to B2, the “sprouting of TEC spheroids” value in the data set with TEC spheroids (setting [8]) is on record as “abrogated”. For the same molecule, the “sprouting of TEC spheroids” value in the data set on TEC spheroids (setting [9]) was “dose-dependently prevented”. Also, the “VEGFR2 phosphorylation in TECs” value in the data set with VEGFR2 [4] is listed as “dose-dependently prevented”. Besides, the “tumor volume and weight” value with CT26 colon cancer is “markedly regressed”. Further, in data set [6], the body weight result is on record as “no changes”; the “clinical chemistry or hematological blood profile” value is recorded as “no alteration”; the “organ pathology upon inspection and histological analysis” value is reported as “no obvious organ pathology”. Moreover, the VEGFR2 dimerization/clustering result in the data set on VEGFR2 [7] (Hu.dpl cells, in situ PLA) is “severely compromised”. For the same molecule, the “VEGFR2 band in immunoblot” value in the data set with VEGFR2 [7] (treated Hu.dpl cells, untreated Hu.dpl 250 kDa (dimer)) is given as 125 kDa. The epitope bound entry in the data set with doppel is “FPDGIY”.

These data come from US10501549B2, “Methods of inhibiting pathological angiogenesis with doppel-targeting molecules” (SEOUL NATIONAL UNIVERSITY R&DB FOUNDATION, priority 2015, dated 2019).
